What was measured:
[1] = test system: human colorectal adenocarcinoma cancer cell; assay: mouse xenograft model of human colorectal adenocarcinoma; conditions: once-weekly intravenous dosing; Example 13 200 mpk or 150 rising to 250 mpk after 3 week; CFZ-captisol 5 mpk; within 19 days of the first dose
[2] = reverse phase assay of main API peak (integrity of the molecule); assay type: physicochemical
Description: In order to identify stable formulations of PEG-CFZ, various formulations were made wherein the desired pegylated carfilzomib compound (API) was dissolve in experimental compositions of excipients, and the stability and quantity of the intact, non-degraded API was monitored and measured in the frozen state (−20° C. or below). Formulations of API was also prepared and tested to determine the ability of each exemplary formulation to provide adequate stability in the liquid state to be suitable for clinical and commercial administration. Here, these formulations were stored at least 8 hours at room temperature and 2 days at a temperatures ranging from 2-8° C. All formulations that were tested contained desired API compounds at 1 mg/mL concentrations.
For each formulation, the stability of the API was tested using three observable and/or measurable characteristics, as follows: • 1. Integrity of the molecule, as assessed by the reverse phase assay; • 2. Clarity of the solution, via visual assessment; and • 3. Concentration of the API material in the solution, as assessed by material recovery after centrifugation Results
FIG. 2 illustrates results of similar measurements taken with the same formulations prepared with exemplary pegylated carfilzomib compound no. 39 instead of example 26. API material recovery is similarly shown in red and percent main API peak at To and T3, as measured by the same reverse phase assay, after storage at 25° C. for 3 days, is shown. Solutions for temperature and time storage conditions were generally prepared as follows—CFZ API was dissolved in formulation buffer by stirring at room temperature for a period of 5 minutes until complete dissolution. Samples were then sterile filtered using 0.2 micron PES filters under aseptic conditions into 3 cc vials, using a 1 ml fill. […]
The percent recovery of the exemplary pegylated carfilomib compounds were measured as a function of reverse phase assays for the peak(s) representing the active molecule/compound. The percent was determined based on the area under the curve, as described below. The reverse phase assays were conducted as follows—CFZ samples were analyzed by reverse phase using a Phenomenex Gemini C18, 50×4.6 mm, 3 micron particle size column with a 47 minute HPLC method. […] Main peak percentage was determined by taking Area Under the Curve integration. […] The concentration of each unknown sample was calculated using the equation of the trend-line generated from this calibration curve by plugging in the total integrated area.
For each exemplary formulation, the stability of the API was tested or measured by six different criteria or methods, as follows: • 1. Integrity of the molecule, as assessed by the reverse phase assay; • 2. […]

[3] = in humans; cited from earlier work

4-((4S,7S,10S,13S)-10-Benzyl-7-isobutyl-15-methyl-13-((R)-2-methyloxirane-2-carbonyl)-2,5,8,11-tetraoxo-4-phenethyl-3,6,9,12-tetraazahexadecyl)-4-(3-((1-(PEG20K-4-Arm)-1H-1,2,3-triazol-4-yl)methoxy)-4-(pivaloyloxy)benzyl)morpholin-4-ium Formate [Example 13]
tumor growth compared to vehicle control [1]: significant attenuation of tumor growth

4-((4S,7S,10S,13S)-10-Benzyl-7-isobutyl-15-methyl-13-((R)-2-methyloxirane-2-carbonyl)-2,5,8,11-tetraoxo-4-phenethyl-3,6,9,12-tetraazahexadecyl)-4-(4-(isobutyryloxy)-3-((PEG5K-imino)methyl)benzyl)morpholin-4-ium Methanesulfonate [Example 26]
main API peak loss (Table 6) ([2]; 5kPEG-CFZ compound example 26, 25° C. (8 h), 4° C. (in 1 week) and −70° C. (in 2 weeks)): minimal main API peak loss
main API peak loss, 4° C. Loss per 1 week ([2]; A5Su formulation, API at 20 mg/mL, storage at 4° C.): 0.0
main API peak loss, 25° C. loss per 8 hr ([2]; A5Su formulation, API at 20 mg/mL, storage at 25° C.): 0.0
main API peak loss, −70° C. loss per 2 weeks ([2]; A5Su formulation, API at 20 mg/mL, storage at −70° C.): 0.0

CC(C)C[C@H](NC(=O)[C@H](CCc1ccccc1)NC(=O)CN1CCOCC1)C(=O)N[C@@H](Cc1ccccc1)C(=O)N[C@@H](CC(C)C)C(=O)[C@@]1(C)CO1 [Carfilzomib]
half-life in-vivo [3]: ≤ 1 h

Reference: patent US11241502B2, “Stable compositions of pegylated carfilzomib compounds” (AMGEN INC., priority 2017, dated 2022)
